From patent US20150368311A1 (Sanofi, published 2015)
Non-standard residues stand in square brackets, D forms with d. No end group written: not given here. Ala(4-thiazolyl) = N[C@@H](Cc1cscn1)C(=O)O; 1Nal = N[C@@H](Cc1cccc2ccccc12)C(=O)O; Phg = N[C@H](C(=O)O)c1ccccc1; Nle = CCCC[C@H](N)C(=O)O

Legend:
Assay in all cases: cell-based or functional assay
[1] = target: T1, human glucagon receptor (human, UniProt P47871 26-477)
[2] = target: T2, human GLP-1 receptor (human, UniProt P43220 24-463)
[3] = target: T1, human glucagon receptor; remark: listed apart in the source
[4] = target: T2, human GLP-1 receptor; remark: listed apart in the source

T1 sequence (P47871 26-477): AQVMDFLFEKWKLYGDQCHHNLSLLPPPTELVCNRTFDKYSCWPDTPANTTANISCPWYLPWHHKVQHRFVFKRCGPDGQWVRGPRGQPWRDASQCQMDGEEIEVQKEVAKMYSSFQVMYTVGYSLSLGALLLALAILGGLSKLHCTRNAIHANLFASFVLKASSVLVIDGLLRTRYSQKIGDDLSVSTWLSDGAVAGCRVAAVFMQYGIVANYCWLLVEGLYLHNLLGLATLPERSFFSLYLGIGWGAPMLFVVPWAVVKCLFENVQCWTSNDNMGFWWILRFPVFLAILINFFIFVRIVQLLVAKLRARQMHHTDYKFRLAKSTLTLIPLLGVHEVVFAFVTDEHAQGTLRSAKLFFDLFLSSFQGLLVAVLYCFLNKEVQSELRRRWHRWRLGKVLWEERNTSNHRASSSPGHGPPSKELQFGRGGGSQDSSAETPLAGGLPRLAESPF

Row | Binder | EC50 hGlucagon-R, cAMP formation [1] [nM] | EC50 hGLP-1R, cAMP formation [2] [nM] | EC50 hGLUC R [pM], cAMP formation [3] [pM] | EC50 hGLP-1 R [pM], cAMP formation [4] [pM]
1 | [Ala(4-thiazolyl)]SQGTFTSDLSKQLESRRAQEFIEWLLATGPESGAPPPS-OH (N-terminus assumed; SMILES CC[C@H](C)[C@H](NC(=O)[C@H](Cc1ccccc1)NC(=O)[C@H](CCC(=O)O)NC(=O)[C@H](CCC(N)=O)NC(=O)[C@H](C)NC(=O)[C@H](CCCNC(=N)N)NC(=O)[C@H](CCCNC(=N)N)NC(=O)[C@H](CO)NC(=O)[C@H](CCC(=O)O)NC(=O)[C@H](CC(C)C)NC(=O)[C@H](CCC(N)=O)NC(=O)[C@H](CCCCN)NC(=O)[C@H](CO)NC(=O)[C@H](CC(C)C)NC(=O)[C@H](CC(=O)O)NC(=O)[C@H](CO)NC(=O)[C@@H](NC(=O)[C@H](Cc1ccccc1)NC(=O)[C@@H](NC(=O)CNC(=O)[C@H](CCC(N)=O)NC(=O)[C@H](CO)NC(=O)[C@@H](N)Cc1cscn1)[C@@H](C)O)[C@@H](C)O)C(=O)N[C@@H](CCC(=O)O)C(=O)N[C@@H](Cc1c[nH]c2ccccc12)C(=O)N[C@@H](CC(C)C)C(=O)N[C@@H](CC(C)C)C(=O)N[C@@H](C)C(=O)N[C@H](C(=O)NCC(=O)N1CCC[C@H]1C(=O)N[C@@H](CCC(=O)O)C(=O)N[C@@H](CO)C(=O)NCC(=O)N[C@@H](C)C(=O)N1CCC[C@H]1C(=O)N1CCC[C@H]1C(=O)N1CCC[C@H]1C(=O)N[C@@H](CO)C(=O)O)[C@@H](C)O) [SEQ ID NO: 12] | 0.001 | 20 | 1 | 20000
2 | [Ala(4-thiazolyl)]SQGTFTSD[Phg]SKQLESRRAQEFIEWLLATGPESGAPPPS-OH (N-terminus assumed; SMILES CC[C@H](C)[C@H](NC(=O)[C@H](Cc1ccccc1)NC(=O)[C@H](CCC(=O)O)NC(=O)[C@H](CCC(N)=O)NC(=O)[C@H](C)NC(=O)[C@H](CCCNC(=N)N)NC(=O)[C@H](CCCNC(=N)N)NC(=O)[C@H](CO)NC(=O)[C@H](CCC(=O)O)NC(=O)[C@H](CC(C)C)NC(=O)[C@H](CCC(N)=O)NC(=O)[C@H](CCCCN)NC(=O)[C@H](CO)NC(=O)[C@@H](NC(=O)[C@H](CC(=O)O)NC(=O)[C@H](CO)NC(=O)[C@@H](NC(=O)[C@H](Cc1ccccc1)NC(=O)[C@@H](NC(=O)CNC(=O)[C@H](CCC(N)=O)NC(=O)[C@H](CO)NC(=O)[C@@H](N)Cc1cscn1)[C@@H](C)O)[C@@H](C)O)c1ccccc1)C(=O)N[C@@H](CCC(=O)O)C(=O)N[C@@H](Cc1c[nH]c2ccccc12)C(=O)N[C@@H](CC(C)C)C(=O)N[C@@H](CC(C)C)C(=O)N[C@@H](C)C(=O)N[C@H](C(=O)NCC(=O)N1CCC[C@H]1C(=O)N[C@@H](CCC(=O)O)C(=O)N[C@@H](CO)C(=O)NCC(=O)N[C@@H](C)C(=O)N1CCC[C@H]1C(=O)N1CCC[C@H]1C(=O)N1CCC[C@H]1C(=O)N[C@@H](CO)C(=O)O)[C@@H](C)O) [SEQ ID NO: 10] | 0.006 | 45 | 6 | 45000
3 | [Ala(4-thiazolyl)]SQGTFTSDLSKQ[Nle]ESRRAQEFIEWLLATGPESGAPPPS-OH (N-terminus assumed; SMILES CCCC[C@H](NC(=O)[C@H](CCC(N)=O)NC(=O)[C@H](CCCCN)NC(=O)[C@H](CO)NC(=O)[C@H](CC(C)C)NC(=O)[C@H](CC(=O)O)NC(=O)[C@H](CO)NC(=O)[C@@H](NC(=O)[C@H](Cc1ccccc1)NC(=O)[C@@H](NC(=O)CNC(=O)[C@H](CCC(N)=O)NC(=O)[C@H](CO)NC(=O)[C@@H](N)Cc1cscn1)[C@@H](C)O)[C@@H](C)O)C(=O)N[C@@H](CCC(=O)O)C(=O)N[C@@H](CO)C(=O)N[C@@H](CCCNC(=N)N)C(=O)N[C@@H](CCCNC(=N)N)C(=O)N[C@@H](C)C(=O)N[C@@H](CCC(N)=O)C(=O)N[C@@H](CCC(=O)O)C(=O)N[C@@H](Cc1ccccc1)C(=O)N[C@H](C(=O)N[C@@H](CCC(=O)O)C(=O)N[C@@H](Cc1c[nH]c2ccccc12)C(=O)N[C@@H](CC(C)C)C(=O)N[C@@H](CC(C)C)C(=O)N[C@@H](C)C(=O)N[C@H](C(=O)NCC(=O)N1CCC[C@H]1C(=O)N[C@@H](CCC(=O)O)C(=O)N[C@@H](CO)C(=O)NCC(=O)N[C@@H](C)C(=O)N1CCC[C@H]1C(=O)N1CCC[C@H]1C(=O)N1CCC[C@H]1C(=O)N[C@@H](CO)C(=O)O)[C@@H](C)O)[C@@H](C)CC) [SEQ ID NO: 16] | 0.0009 | 19.7 | 0.9 | 19700
4 | [Ala(4-thiazolyl)]SQGTFTSD[1Nal]SKQLESRRAQEFIEWLLATGPESGAPPPS-OH (N-terminus assumed; SMILES CC[C@H](C)[C@H](NC(=O)[C@H](Cc1ccccc1)NC(=O)[C@H](CCC(=O)O)NC(=O)[C@H](CCC(N)=O)NC(=O)[C@H](C)NC(=O)[C@H](CCCNC(=N)N)NC(=O)[C@H](CCCNC(=N)N)NC(=O)[C@H](CO)NC(=O)[C@H](CCC(=O)O)NC(=O)[C@H](CC(C)C)NC(=O)[C@H](CCC(N)=O)NC(=O)[C@H](CCCCN)NC(=O)[C@H](CO)NC(=O)[C@H](Cc1cccc2ccccc12)NC(=O)[C@H](CC(=O)O)NC(=O)[C@H](CO)NC(=O)[C@@H](NC(=O)[C@H](Cc1ccccc1)NC(=O)[C@@H](NC(=O)CNC(=O)[C@H](CCC(N)=O)NC(=O)[C@H](CO)NC(=O)[C@@H](N)Cc1cscn1)[C@@H](C)O)[C@@H](C)O)C(=O)N[C@@H](CCC(=O)O)C(=O)N[C@@H](Cc1c[nH]c2ccccc12)C(=O)N[C@@H](CC(C)C)C(=O)N[C@@H](CC(C)C)C(=O)N[C@@H](C)C(=O)N[C@H](C(=O)NCC(=O)N1CCC[C@H]1C(=O)N[C@@H](CCC(=O)O)C(=O)N[C@@H](CO)C(=O)NCC(=O)N[C@@H](C)C(=O)N1CCC[C@H]1C(=O)N1CCC[C@H]1C(=O)N1CCC[C@H]1C(=O)N[C@@H](CO)C(=O)O)[C@@H](C)O) [SEQ ID NO: 11] | 0.0009 | 11.7 | 0.9 | 11700
5 | [Ala(4-thiazolyl)]SQGTFTSDLSKQLESRRAQDFIEWLLATGPESGAPPPS-OH (N-terminus assumed; SMILES CC[C@H](C)[C@H](NC(=O)[C@H](Cc1ccccc1)NC(=O)[C@H](CC(=O)O)NC(=O)[C@H](CCC(N)=O)NC(=O)[C@H](C)NC(=O)[C@H](CCCNC(=N)N)NC(=O)[C@H](CCCNC(=N)N)NC(=O)[C@H](CO)NC(=O)[C@H](CCC(=O)O)NC(=O)[C@H](CC(C)C)NC(=O)[C@H](CCC(N)=O)NC(=O)[C@H](CCCCN)NC(=O)[C@H](CO)NC(=O)[C@H](CC(C)C)NC(=O)[C@H](CC(=O)O)NC(=O)[C@H](CO)NC(=O)[C@@H](NC(=O)[C@H](Cc1ccccc1)NC(=O)[C@@H](NC(=O)CNC(=O)[C@H](CCC(N)=O)NC(=O)[C@H](CO)NC(=O)[C@@H](N)Cc1cscn1)[C@@H](C)O)[C@@H](C)O)C(=O)N[C@@H](CCC(=O)O)C(=O)N[C@@H](Cc1c[nH]c2ccccc12)C(=O)N[C@@H](CC(C)C)C(=O)N[C@@H](CC(C)C)C(=O)N[C@@H](C)C(=O)N[C@H](C(=O)NCC(=O)N1CCC[C@H]1C(=O)N[C@@H](CCC(=O)O)C(=O)N[C@@H](CO)C(=O)NCC(=O)N[C@@H](C)C(=O)N1CCC[C@H]1C(=O)N1CCC[C@H]1C(=O)N1CCC[C@H]1C(=O)N[C@@H](CO)C(=O)O)[C@@H](C)O) [SEQ ID NO: 15] | 0.0022 | 34.5 | 2.2 | 34500
